# According to the DeepSol protein solubility set:
# Assay: soluble on expression in E. coli; label from the status in PepcDB or PDB records
row,Sequence,soluble on expression in E. coli
1,GPGSMLRGCAAACGQCRESASAVYGQALWLLLRPWTRSPSLPSSTHARLGLRRALGTVTSSLSSSSSCATVHHPTRWVSRKSIEEQLPSNIKVDPNASATAGRENEGLGRDAFSSGINGIYGNRAESAMRGMLGPQGQADARESRAVPILGRASVQGTKYTLDRSTVFEHWRFHCSEPVGWHLSKLGSTTCKMVNDVNEAVESLQLQIIKGCNVFEIDGAASEVHQSIARGIYEALQAFELDRSGFVMVARCGLIKQPRFQDEITRVEASNTAAVRNRIIPIFERYKASSLPSTSLKSGFRISELDDSQLARLNLRRVDRTTAAGLSPDWLDAFFTNVAYNTRLECIDVLLLEGMHTLFDGRPDEHVDDDILQLFVYLERQVKQGVLQYYGVCSPHLAPPVPRNYPEMPPDALVPDKYRTPPKEPATINLYRLMALAERAGGADHHFRFVQYPFNLTQHQAISSPLPYDANHTLATLCKALGLTALGYSPLEAPNLMQLPERYHNFPMEADLKALRMNFFTVCERSVLKEMEIKDTIDKGPDTLPPLEHLFVASVYLAAQRQFTNLFFFTDWANYYMTPRFRRAMTRFKEASSADLKEWAKQYEQLISDLLRMRQRMFQHKHGKQAGLVNMAIDYVSPTLARCPMLNQKAINFATYGCNVLLCGFHVSRYFHEATELNPAKDGNLPIPEEELLALCSAETVSYANVSPPHPYMLEPLMGEGKISKQPSKGAAYLVRIDPQNPKFPDIPEELQTGDSDGEAPVSADGATAALHKDEAPEKAVKE,not soluble
2,GPGSMLWVDRYRPKTLKDVELYPELKEVLTRLSKAQDLPHLLFYGPSGSGKKTRAMAMLHEIYGPSVFSVRLEHKSVQVSDSKVVDIATLSSPHHIDINPSDAGNYDRAIVMQMIREIAQTVPLHSTSGNRKNVPYKVVVLNEVDKMSRTAQHALRRTMEKYMNTCRLFLLCNSTSRLIPPLRSRCLGIRVASHSKDNLKLAVQRVCEGEGRPLPSVAFLNSLALRSDGNLRRGLLMLEASALAKVDWSGNGAAIPQADWKLFLDEISHDIVAEQTPKRLHEVRLKFYDLLAQCISGETILKTLVDSLLAAVAPALQRPLIELAAKYDHNMKLGTKPILHLEAFVAAVMKLIKQQ,not soluble
3,GPGSMMDCDHLLRLGMTAKKILENGKGILAADETPKTLGRRFEKLGITNTEENRRKFREILFSTKGIERYIGGVILNQETFEQTSGSGVPLTELLKKKGIEIGIKLDKGLIDYKEKEKISVGLEDLDLRCKSSAFKDATFAKWRSLFYFYDGIPSEDCINENCSILAKYAIICQKNGLVPIVEPEVFLEGDYSMKRSYEVTRQILSTLMKYLNYELVYIPGVLIKASYVTSGQLSNEKYTPKKVATFTLRALLSTIPCGIPGIVFLSGGHGSEDAIGFLNAINMERGCRTWSLSFSFARALTDGVLETWRGDDSNIEEAQKILLETSFKACRGAEGKLWDQE,soluble
4,GPGSMMEPTRNAEYSKQEYWDRRYTEEEHYDWFPSVYPMCVAAAFETVEAVYRVQRSTGAFNGTLKVLHLGTGNSTLCADIRATYEAKYPTEDSRPYRLVQAATDYSAVVIDRMQAKYGLAHPLEDVHWVVADIRDLSRVREQFGPFFDVVLDKGTMDALQADKANQNMEDDIERMLCEVSRCVEGGAGTRVYRVFVQITWEIPYLRLYYTTRNATHTFAWGTNVTYRFLGESDMYRVYTYEVSPPSSE,soluble
5,GPGSMMGTDTEKGLYLHAAWDLFERLRPGQQLCVSFFEIYCNSLYDLLNHRHPIVLREDANRRVNICGVTWRTVATVEELWQLVRSGMEQRRTGTTTANEHSSRSHAVLSLRITDSENPDFTGSVNFVDLAGSERAADTAAHDRLTRLEGAEINKSLLALKECIRALDEKKKHVPFRGSRLTEVLRASFTGNSKTVMIAAVSPSSVNHEHTSNTLRYAFRVKGLSVPSVWPSTARNAPRLCLPVARSRSRAAAAVAAANEPTSAPAATECSFNSKHTDDAGSPRRPRHARRRRHAYKTAHEPQDEIGISDTNESCTSDTATESPRPRMQITQKACRHQVGRNSTGSSTSAKRHKTCCLVPYMVESLSQRRTRHRTRKERLPLPRAACSIGESSDLLLANASGTDSKSRALAEVILPHVKGATRHPSSLIAVDVAALEQRLTLQIIAQLRLDLGQQLEEVLMEKDTIISALRSENEKLRQALDKTGNVEQFYGGSPCDGEVQKRPAVLPALLYPSSPSILQEQLSSGVSTASVGDEPPLRVLSE,not soluble
6,GPGSMMTEATTTPVETPIVCNIRDAAGLEGKLVTFKGWAYHIRKARKTLIFVELRDGSGYCQCVIFGKELCEPEKVKLLTRECSLEITGRLNAYAGKNHPPEIADILNLEMQVTEWKVIGESPIDLENIINKDSSIPQKMQNRHIVIRSEHTQQVLQLRSEIQWYFRKYYHDNHFTEIQPPTIVKTQCEGGSTLFKLQYFNEPAYLTQSSQLYLESVIASLGKSFCMLSSYRAEQSRTVRHLAEYLHLEAELPFISFEDLLNHLEDLVCTVIDNVMAVHGDKIRKMNPHLKLPTRPFKRMTYADAIKYCNDHGILNKDKPFEYGEDISEKPERQMTDEIGCPIFMIHFPSKMKAFYMSKVPGHPDLTESVDLLMPGVGEIVGGSMRIWNYDELMGAYKANGLNPDPYYWYTQQRKYGSCPHGGYGLGVERLVMWLLGEDHIRKVCLYPRYLERCEP,soluble
7,GPGSMNHLAGKIHVVQTPEEGRRFSLEQVVLPVLGNGAERLVSPDGKMREASERLAQELQIEGLMKMKAAPPATYRRLVVRPRDFTYCLFDDERGWCWESNNEAPIRPQLWEDQEGIMRQLSPLSVATGKNIIARNGIRGAEQRSHFLKAARRSGMTCVLRMTLPRGSAVTSALREAFQFATLDPGVIFHLLR,not soluble
8,GPGSMPPKKGKKLKKKVKLQVPPQYEEQISKEPVSDPPTSQQSITSLPISVVEAALAVEESPEEDIVTFGAEALNRLLSMRHPQQIAADLTRSLSSLRQRLAQLEMEWLGFESSAVGSTYACRARDQKDKLEHEVRKTEKMTRHLILLGRVLDRIFELRTSVFDTERTAMEAEVEELTKRVEKNDEEIRSCYINRISLLHRYWVWRTLQELGDMTVGRTFAEELARGPRYRSIAIQNRILSDTLERQLEWLQRFLEKEEVFCGRVRQLERFVEEFTDMNDALEEVLTCRVCNLLFEDPVVFWPCGHSFCLQCFDSLSVAPSLFRCPLCGSMGSEGYVHNLLLSESVAKWMFKDACYADVHGALSLVRLHLSKFRRNIISSRMEQLEERLTAERGRELASDTLDDMDIVYRAY,not soluble
9,GPGSMRAEKVTVSPAGEGAAPLFVFGYGSILWKQQFEYLRALPCCVHGYKRVFYQGSTDHRGVPARPGRVVTLLTCGDPEAWVGGVAFELPVEEEKREKILAQLDDRESGGYEREEVTLYDIKTHERLHLPPGAVCLCYRATEDNPEYLGEAKDEAIAEQILSCEGLSGPNSEYLFKLAEALRKLESADQHVFAVETAALHIMKAQNVPE,soluble
10,GPGSMRAVVFSDVASAELREHIRAIASTSYAEVVYVDVSESAEADLATAWHTRYGGASHSPPAARDELDDLKNTFVCYLTEQKTIEDSDVVYAVFVAEVHTLVLTPSVTLTPLMHATADGSVSARKAAIESFFSVAPSSSSAEVIVVEGGDGAGKETQTGLLVRRVHAAGDEVHALDFPNEKGLYGGLVRAVLSGKKGPISELNPQLFSFLYSLNRFGCARQLHFWLRRGSSVVLDRYYTANFGHQASKLPPEEREAFISDLEFMEVEWLGLPRATYVLYLDLPPAVALEAMRQDATRKQLDIHETAGSDYKERVRQTYRWCCEHLPGWHHIECFSDDGRRLTREEVHASITSHLRDAGSRAIGAPS,not soluble
11,GPGSMRCIGMMEELVAEGCSAIKSRHDKTNEELGDLRLQVHQEYLEAFRRLYKTLGQLVYKKEKRLEEIDRNIRTTHIQLEFAIETFDPNAKKHSDAKKELYKLRAQVEEELEMLKDKMAQALEMFGPTEDALNQAGIEFVHPAEEVEDGNLTRRSKMVEYRAHLAKQEEVKIAAEREELKRSKTLQSQQYRGKTVQQITQ,soluble
12,GPGSMSADKVVIIGAGPTGLGAAVRLMELKHANFHLYDGGTVPGGLSRSVLDDKGFLWDMGGHVIFSHYAYFDDVMNLAISDWNTLQRESWVRCSGAWVPYPFQSNIHRLPPEVRDTCLKGIEEAEAARSVAAPEKPQNFAEYVSRHFGEGIAEVFMRPYNFKVWAVPLHLMSTEWVGERVAAVNVERIRENIQLKRDDVGWGPNATFRFPKSGGTGAIYKAVWKMIPEAHKTLGPQCRVTKVNPITKTLTMANGEAVSYDALVSTMPLDDLLLAVAAGVEEDAETASASALKAPRLREIADKMVYSSTHIIGIGVKGCPPPEMRTACWLYFPEDGIPFYRATIFSRYADTNAPEGHWSILLEVSQNVLYKPVNVDTIVEDCIAGLRTVTLLRPEDEIVSRWHHMEKKGYPIPFVGRNELLEEVQPVLRDKYQIYSRGRFGAWRYEVANQDHSLMQGVEAVGHIFYGTDEDTVHKPEKVNTRRGEMRCTWSSTAS,soluble
13,GPGSMSASGSGVAAIYGRAEEAQNAPVKLQPVPAFELYKAAREEELCSYRSLCRVLCMHSGGKLTKQQRRILEDMREELCLPTERAEAELAAAREDVLVTSVAASGVLKRRQDFFDGVTDVPLDTLSYAESAKDDNNSLYVAQTKVARTEQIVGGVHGRHAAPSKMSIREIHKNLERIGREVAATSSKLLYCTSVVDQQAYRNVLQQKREQLQAMLREVEDAPPDMSGIASVMPSEHVY,soluble
14,GPGSMSEEHANDSTLRVKVATINDKGEEVYASSLSHDGTYLAAVFGDGALVIFNPSTFSALDSSAAGKGYDNVPCTAVQWLESSEGGLYRLVSVSSAGGVFIWQWDGAALHRTNRVPEKGNEITCLAVSPECDMFITAGSDRTVRLYDADGTLKANLQMAHDESGVSRLAHTSRIFSVRFVSQGVAVSGGWGGPLQVWDLKANEARVEIRGAQVSSDGIELITGTNCVLVASRRQKEQLQVFDCVSGQELADDSARLSMALGELIPLSSRLCKTSGLVWTITSSPSKVLVTSYSTGQLIASYDSAYDLMNISIFEGLPNNAYISCAEGKLLFATVKQ,not soluble
15,GPGSMSFYRTKKVIINSLFSDSSWYCTFRFRNPMTSQRRSCHEGIPSGRVTGNSVTLLSEMRENNAIGVEAVGKERKRPDAMTVLSNVFRTNPAALRLHRELTICIASGETERASDLASVLAGLVKRTTRLDDIEQKCAEEGGRSKVPNDPVPVVGEETVEFLTSNVVRGVSSQSRLESIEILHNDAPGAPYLGEKVAEAAEVKDSEPLPFWKNPDALRLTLLESAFEMALADDNENPLQPGSVEADCLEKERMEILDAYLKREGKRWELQKAAVARAIVATVKDLGVVPEDIHAALQAEGELRLNGSDKRFNVLKHCNIIVRGEVPEVMELQMKGTATRNVEASVSQELDVLINRMSSTGTPLSQRDKDLALFELVMSKSKMRYVVGLHRELQVALDTAPALRKLAVEHRAKSGSVLFVERALKMLNKVAPDGSETTAEDVECIDTISTPVLPFTFMLKMCLWFEAPVAM,not soluble
16,GPGSMSHKRPQSSAGESNGAVDLKTPRFDPVSLGLPAEFQLTDYTRLKGCSCKLPQPKLLALLQELSATPGQKDVGMDCSIVPLHHTNSKGEALFLVSTTDFFFPSVSDPFLQGQIGAANVLSDLYSMGIPDCDTMLMLLAASTEMDEHERLITTREIMKGFAERARLATTTVTGGQTVMNPWPLIGGVAMAVVSEAEMVRPTGLLCAGDILVLTKPLGCQVAVNLKQWLLRPSPLYEEAIAGHISPEEIEELYNMATDSMRRLNREGARLMRKHGAHGATDVTGFGILGHANNFGAAQAVGDAPRSLCLVLERLPMFKTAVAASKQMNDKYRLLEGYSAETSGGLLVAFPSTTAAAAFCAELTAVDGGCPSWIVGHVEDRATNAVDGVYARLKDGYEIVEV,soluble
17,GPGSMSLKVNILGHEFSNPFMNAAGVLCTTEEDLRRMTESESGSLIGKSCTLAPRTGNPEPRYFGLPLGSINSMGLPNLGVDFYLSYAAQTHDYSRKPLFLSMSGLSVEESVEMVKKLAPITKEKGTILELNLSCPNVPGKPQVGYDFDTTRTYLQKVSEAYGLPFGVKMPPYFDIAHFDMAAAVLNDFPLVKFITCVNSIGNGLVIDPANETVVIKPKQGFGGLGGKYVLPTALANVNAFFRRCPDKLVFGCGGVYSGEEAFLHILAGASMVQVGTALHDEGPIIFARLNKELQEIMTNKGYKTLDEFRGRVKTMD,soluble
